Measured values taken from patent US6984373B2, “Fibrin binding moieties useful as imaging agents” (Dyax Corp., priority 2000, dated 2006).
* marks the point of attachment. HYNIC = NNc1ccc(C(=O)*)cn1

Test system: human fibrin gel
Experiment: Gamma camera imaging of fibrin clot in rabbit femoral artery with 99mTc-labeled peptide
Format: in vivo
Conditions: tricine coligand
Description: Preliminary imaging experiments were performed with ^99mTc-labeled DX-328 using tricine as a coligand. A human fibrin gel was formed around a small wire placed in the femoral artery of a rabbit. The radiolabeled imaging agent was injected into the ear vein of the rabbit, and images were taken using a gamma camera.
The intensity of radioactivity in the pulmonary region is due to circulating imaging agent that has not yet cleared. By increasing the time between injection and imaging, the background in the pulmonary region and elsewhere should be reduced as the unbound imaging agent clears through the kidneys. Alternatively, the same effect could be achieved by decreasing the clearance time of the imaging agent. This could be accomplished by using EDDA as a coligand instead of tricine.

## Ac-WQPCPWESWTFCWDPGGGK(HYNIC)-NH2 (not fully specified (bridges); cysteine pairing not given here; also: 99mTc/tricine complex) [DX-328, HYNIC-labeled peptide, used 99mTc-labeled with tricine coligand]
rabbit
  route of excretion of agent unbound to the clot: renally excreted
Ear vein injection, human fibrin gel on wire in femoral artery
  visualisation of clot in left thigh versus clot-free right thigh: can clearly be seen
